Here are results for 10 molecules from doi:10.1101/2025.11.11.685192 (bioRxiv, 2025).

In series [1] the target is gp130 D215G mutant, soluble extracellular domain (gp130 D215G ECD) (human). Put plainly: cryo-EM structure.
The target of series [2] is gp130 V252G mutant, soluble extracellular domain (gp130 V252G ECD) (human). As to the kind of experiment: cryo-EM structure.
In series [3] the target is gp130 S187-Y190 deletion mutant, soluble extracellular domain (gp130 ΔSY ECD) (human). Put plainly: SEC + SEC-MALS + native gel or EMSA. (In EMSA bound probe runs differently from free probe, usually more slowly.)
Series [4] has the same target. As to the kind of experiment: cryo-EM structure.
The target in series [5] is full-length gp130 ΔSY with an additional D1 deletion (gp130 ΔSYΔD1) (human) (UniProt P40189). Put plainly: cryo-EM structure.
The target of series [6] is full-length gp130 ΔSY with additional D4-D6 deletion (gp130 ΔSYΔ(D4-D6)) (human) (UniProt P40189). As to the kind of experiment: cryo-EM structure.
The series “cryo-EM structure” concerns the molecule itself. Put plainly: cryo-EM structure.
The series “native gel or EMSA” concerns the molecule itself. Put plainly: native gel or EMSA.

In the case of “gp130 D215G mutant, soluble extracellular domain (gp130 D215G ECD) (domain or fragment)”, the stoichiometry N in series [1] is 2.

As for “gp130 V252G mutant, soluble extracellular domain (gp130 V252G ECD) (domain or fragment)”, in series [2], the stoichiometry N is 2.

Consider “gp130 S187-Y190 deletion mutant, soluble extracellular domain (gp130 ΔSY ECD) (domain or fragment)”, for which the stoichiometry N in series [3] and in series [4] was 2 throughout.

On to “full-length gp130 ΔSY with an additional D1 deletion (gp130 ΔSYΔD1) (from UniProt P40189 23-918) (receptor)”, for which the stoichiometry N in series [5] is 2.

The molecule “full-length gp130 ΔSY with additional D4-D6 deletion (gp130 ΔSYΔ(D4-D6)) (from UniProt P40189 23-918) (receptor)” returned a stoichiometry N in series [6] of 2.

B1: full-length gp130 A418-F421 deletion mutant (gp130 ΔAF) (receptor, human, UniProt P40189 23-918, looked up)
chain: ELLDPCGYISPESPVVQLHSNFTAVCVLKEKCMDYFHVNANYIVWKTNHFTIPKEQYTIINRTASSVTFTDIASLNIQLTCNILTFGQLEQNVYGITIISGLPPEKPKNLSCIVNEGKKMRCEWDGGRETHLETNFTLKSEWATHKFADCKAKRDTPTSCTVDYSTVYFVNIEVWVEAENALGKVTSDHINFDPVYKVKPNPPHNLSVINSEELSSILKLTWTNPSIKSVIILKYNIQYRTKDASTWSQIPPEDTASTRSSFTVQDLKPFTEYVFRIRCMKEDGKGYWSDWSEEASGITYEDRPSKAPSFWYKIDPSHTQGYRTVQLVWKTLPPFEANGKILDYEVTLTRWKSHLQNYTVNATKLTVNLTNDRYLATLTVRNLVGKSDAAVLTIPQATHPVMDLKAFPKDNMLWVEWTTPRESVKKYILEWCVLSDKAPCITDWQQEDGTVHRTYLRGNLAESKCYLITVTPVYADGPGSPESIKAYLKQAPPSKGPTVRTKKVGKNEAVLEWDQLPVDVQNGFIRNYTIFYRTIIGNETAVNVDSSHTEYTLSSLTSDTLYMVRMAAYTDEGGKDGPEFTFTTPKFAQGEIEAIVVPVCLAFLLTTLLGVLFCFNKRDLIKKHIWPNVPDPSKSHIAQWSPHTPPRHNFNSKDQMYSDGNFTDVSVVEIEANDKKPFPEDLKSLDLFKKEKINTEGHSSGIGGSSCMSSSRPSISSSDENESSQNTSSTVQYSTVVHSGYRHQVPSVQVFSRSESTQPLLDSEERPEDLQLVDHVDGGDGILPRQQYFKQNCSQHESSPDISHFERSKQVSSVNEEDFVRLKQQISDHISQSCGSGQMKMFQEVSAADAFGPGTEGQVERFETVGMEAATDEGMPKSYLPQTVRQGGYMPQ
As to B1, the “stoichiometry N” value in the series “cryo-EM structure” turned out to be 2.

B2: full-length gp130 K173-D177 deletion mutant (gp130 ΔKD) (receptor, human, UniProt P40189 23-918, looked up)
chain: ELLDPCGYISPESPVVQLHSNFTAVCVLKEKCMDYFHVNANYIVWKTNHFTIPKEQYTIINRTASSVTFTDIASLNIQLTCNILTFGQLEQNVYGITIISGLPPEKPKNLSCIVNEGKKMRCEWDGGRETHLETNFTLKSEWATHKFADCTPTSCTVDYSTVYFVNIEVWVEAENALGKVTSDHINFDPVYKVKPNPPHNLSVINSEELSSILKLTWTNPSIKSVIILKYNIQYRTKDASTWSQIPPEDTASTRSSFTVQDLKPFTEYVFRIRCMKEDGKGYWSDWSEEASGITYEDRPSKAPSFWYKIDPSHTQGYRTVQLVWKTLPPFEANGKILDYEVTLTRWKSHLQNYTVNATKLTVNLTNDRYLATLTVRNLVGKSDAAVLTIPACDFQATHPVMDLKAFPKDNMLWVEWTTPRESVKKYILEWCVLSDKAPCITDWQQEDGTVHRTYLRGNLAESKCYLITVTPVYADGPGSPESIKAYLKQAPPSKGPTVRTKKVGKNEAVLEWDQLPVDVQNGFIRNYTIFYRTIIGNETAVNVDSSHTEYTLSSLTSDTLYMVRMAAYTDEGGKDGPEFTFTTPKFAQGEIEAIVVPVCLAFLLTTLLGVLFCFNKRDLIKKHIWPNVPDPSKSHIAQWSPHTPPRHNFNSKDQMYSDGNFTDVSVVEIEANDKKPFPEDLKSLDLFKKEKINTEGHSSGIGGSSCMSSSRPSISSSDENESSQNTSSTVQYSTVVHSGYRHQVPSVQVFSRSESTQPLLDSEERPEDLQLVDHVDGGDGILPRQQYFKQNCSQHESSPDISHFERSKQVSSVNEEDFVRLKQQISDHISQSCGSGQMKMFQEVSAADAFGPGTEGQVERFETVGMEAATDEGMPKSYLPQTVRQGGYMPQ
For B2, in “cryo-EM structure”, the “stoichiometry N” value came to 2.

B3: full-length gp130 E195-V196 deletion mutant (gp130 ΔEV) (receptor, human, UniProt P40189 23-918, looked up)
chain: ELLDPCGYISPESPVVQLHSNFTAVCVLKEKCMDYFHVNANYIVWKTNHFTIPKEQYTIINRTASSVTFTDIASLNIQLTCNILTFGQLEQNVYGITIISGLPPEKPKNLSCIVNEGKKMRCEWDGGRETHLETNFTLKSEWATHKFADCKAKRDTPTSCTVDYSTVYFVNIWVEAENALGKVTSDHINFDPVYKVKPNPPHNLSVINSEELSSILKLTWTNPSIKSVIILKYNIQYRTKDASTWSQIPPEDTASTRSSFTVQDLKPFTEYVFRIRCMKEDGKGYWSDWSEEASGITYEDRPSKAPSFWYKIDPSHTQGYRTVQLVWKTLPPFEANGKILDYEVTLTRWKSHLQNYTVNATKLTVNLTNDRYLATLTVRNLVGKSDAAVLTIPACDFQATHPVMDLKAFPKDNMLWVEWTTPRESVKKYILEWCVLSDKAPCITDWQQEDGTVHRTYLRGNLAESKCYLITVTPVYADGPGSPESIKAYLKQAPPSKGPTVRTKKVGKNEAVLEWDQLPVDVQNGFIRNYTIFYRTIIGNETAVNVDSSHTEYTLSSLTSDTLYMVRMAAYTDEGGKDGPEFTFTTPKFAQGEIEAIVVPVCLAFLLTTLLGVLFCFNKRDLIKKHIWPNVPDPSKSHIAQWSPHTPPRHNFNSKDQMYSDGNFTDVSVVEIEANDKKPFPEDLKSLDLFKKEKINTEGHSSGIGGSSCMSSSRPSISSSDENESSQNTSSTVQYSTVVHSGYRHQVPSVQVFSRSESTQPLLDSEERPEDLQLVDHVDGGDGILPRQQYFKQNCSQHESSPDISHFERSKQVSSVNEEDFVRLKQQISDHISQSCGSGQMKMFQEVSAADAFGPGTEGQVERFETVGMEAATDEGMPKSYLPQTVRQGGYMPQ
For B3, the “stoichiometry N” value in the series “cryo-EM structure” was 2.

B4: full-length gp130 P216H mutant (receptor, human, UniProt P40189 23-918, looked up)
chain: ELLDPCGYISPESPVVQLHSNFTAVCVLKEKCMDYFHVNANYIVWKTNHFTIPKEQYTIINRTASSVTFTDIASLNIQLTCNILTFGQLEQNVYGITIISGLPPEKPKNLSCIVNEGKKMRCEWDGGRETHLETNFTLKSEWATHKFADCKAKRDTPTSCTVDYSTVYFVNIEVWVEAENALGKVTSDHINFDHVYKVKPNPPHNLSVINSEELSSILKLTWTNPSIKSVIILKYNIQYRTKDASTWSQIPPEDTASTRSSFTVQDLKPFTEYVFRIRCMKEDGKGYWSDWSEEASGITYEDRPSKAPSFWYKIDPSHTQGYRTVQLVWKTLPPFEANGKILDYEVTLTRWKSHLQNYTVNATKLTVNLTNDRYLATLTVRNLVGKSDAAVLTIPACDFQATHPVMDLKAFPKDNMLWVEWTTPRESVKKYILEWCVLSDKAPCITDWQQEDGTVHRTYLRGNLAESKCYLITVTPVYADGPGSPESIKAYLKQAPPSKGPTVRTKKVGKNEAVLEWDQLPVDVQNGFIRNYTIFYRTIIGNETAVNVDSSHTEYTLSSLTSDTLYMVRMAAYTDEGGKDGPEFTFTTPKFAQGEIEAIVVPVCLAFLLTTLLGVLFCFNKRDLIKKHIWPNVPDPSKSHIAQWSPHTPPRHNFNSKDQMYSDGNFTDVSVVEIEANDKKPFPEDLKSLDLFKKEKINTEGHSSGIGGSSCMSSSRPSISSSDENESSQNTSSTVQYSTVVHSGYRHQVPSVQVFSRSESTQPLLDSEERPEDLQLVDHVDGGDGILPRQQYFKQNCSQHESSPDISHFERSKQVSSVNEEDFVRLKQQISDHISQSCGSGQMKMFQEVSAADAFGPGTEGQVERFETVGMEAATDEGMPKSYLPQTVRQGGYMPQ
Consider B4, for which the “stoichiometry N” value in “cryo-EM structure” turned out to be 2.

B5: full-length gp130 S187-Y190 deletion mutant (gp130 ΔSY full-length) (receptor, human, UniProt P40189 23-918, looked up)
chain: ELLDPCGYISPESPVVQLHSNFTAVCVLKEKCMDYFHVNANYIVWKTNHFTIPKEQYTIINRTASSVTFTDIASLNIQLTCNILTFGQLEQNVYGITIISGLPPEKPKNLSCIVNEGKKMRCEWDGGRETHLETNFTLKSEWATHKFADCKAKRDTPTSCTVDYFVNIEVWVEAENALGKVTSDHINFDPVYKVKPNPPHNLSVINSEELSSILKLTWTNPSIKSVIILKYNIQYRTKDASTWSQIPPEDTASTRSSFTVQDLKPFTEYVFRIRCMKEDGKGYWSDWSEEASGITYEDRPSKAPSFWYKIDPSHTQGYRTVQLVWKTLPPFEANGKILDYEVTLTRWKSHLQNYTVNATKLTVNLTNDRYLATLTVRNLVGKSDAAVLTIPACDFQATHPVMDLKAFPKDNMLWVEWTTPRESVKKYILEWCVLSDKAPCITDWQQEDGTVHRTYLRGNLAESKCYLITVTPVYADGPGSPESIKAYLKQAPPSKGPTVRTKKVGKNEAVLEWDQLPVDVQNGFIRNYTIFYRTIIGNETAVNVDSSHTEYTLSSLTSDTLYMVRMAAYTDEGGKDGPEFTFTTPKFAQGEIEAIVVPVCLAFLLTTLLGVLFCFNKRDLIKKHIWPNVPDPSKSHIAQWSPHTPPRHNFNSKDQMYSDGNFTDVSVVEIEANDKKPFPEDLKSLDLFKKEKINTEGHSSGIGGSSCMSSSRPSISSSDENESSQNTSSTVQYSTVVHSGYRHQVPSVQVFSRSESTQPLLDSEERPEDLQLVDHVDGGDGILPRQQYFKQNCSQHESSPDISHFERSKQVSSVNEEDFVRLKQQISDHISQSCGSGQMKMFQEVSAADAFGPGTEGQVERFETVGMEAATDEGMPKSYLPQTVRQGGYMPQ
Take B5: the “stoichiometry N” value in “native gel or EMSA” worked out at 2.

By stoichiometry N is commonly meant a count of units in the complex or per binding partner.
